The data set can be described thus: Solubility of protein polymers. The data set is classed as physicochemical. An excerpt: In order to both increase solubility of the protein backbone in organic solvents and to include a better enzymatic transglutaminase substrate for conjugation to chelators, a phenylalanine amino acid (F) will be added to the random coil backbone, resulting in GFKAGTGSA (SEQ ID NO: 4). It is contemplated that this protein structure will not form a particular secondary structure, behaving as a random coil in an aqueous solution. As indicated by the monomer sequence, the lysines are spaced every nine amino acids, which is still an optimal interval for a high concentration of Gd chelators, but still allowing enough room to prevent steric hindrance. […] It is contemplated that proteins including various amounts of leucines, a hydrophobic residue that is high on the hydropathy scale, provides novel protein polymers useful in the present invention that are both water and organo-soluble.
However, a protein soluble in organic solvents would allow coupling in N-methyl-pyrrolidone (NMP) using a peptide coupling agent such as Bromo-tris-pyrrolidinophosphoniumhexafluorophosphate (PyBroP) or 2-(IH-7-Azabenzotriazol-1-yl)-1,1,3,3-tetramethyluroniumhexafluorophosphate Methanaminium (HATU) in diisopropylethylamine (DIEA). Two equivalents of the chelator and at least 2:1 equivalents of the peptide-coupling agent will be used for each lysine site. […]

No end group written: not given here.

For “GFKAGTGSA: protein polymer with monomer GFKAGTGSA (SEQ ID NO: 4), phenylalanine added to the random coil backbone (also: repeated monomer polymer)”, the solubility in water entry is “only soluble in water at high pH”. For the same substance, the solubility in organics result (organic solvents) was “not soluble in organics”.

Source of the values: patent US8021646B2, “Compositions and methods for magnetic resonance imaging contrast agents” (Northwestern University, priority 2006, dated 2011).
